From patent publication US12280159B2, “Therapeutic protein-based nanoparticles for treating cancer” (THE REGENTS OF THE UNIVERSITY OF MICHIGAN, priority 2020, dated 2025)

Key:
[1] = test system: draining lymph nodes (F4/80+ macrophages, B220+ B cells, CD11c+ DCs); set-up: species or system C57BL/6 mice; conditions: mouse, in vivo, sc
Description: OVA pNPs delivery to lymph nodes. Next, the pNPs targeting of the draining lymph nodes using AlexaFluor 647-labeled pNPs was evaluated. OVA pNPs of varying PEG/OVA ratio (10, 30, 50%) and size (200 nm, 500 nm) were injected subcutaneously at the tail base of C57BL/6 mice (10 μg OVA/100 μL dose). The inguinal draining lymph nodes were harvested 48 hours after injection. Single-cell suspensions from the draining lymph nodes were prepared and pNPs uptake among the different populations of antigen-presenting cells were analyzed (dendritic cells, macrophages and B cells) using flow cytometry by comparing the MFI values of the cells. […] In the past, many different particle sizes have been studied with respect to their lymphatic drainage. It has been shown that particles exceeding 500 nm can be trapped at the injection site. Nanoparticles smaller than 10 nm, or soluble antigen, diffuse into the lymphatic system easily, but their retention time in the lymph nodes is too short to provide sustained antigen delivery. […] For smaller pNPs sizes, improved uptake is observed for pNP with lower PEG/OVA ratio.

B16F10-OVA melanoma = experiment: Therapeutic efficacy in murine B16F10-OVA melanoma model; format: in vivo, C57BL/6 mice; conditions: treated days 7 and 14 with CpG
Description: Therapeutic efficacy of pNPs in a model of melanoma. Encouraged by the fact that OVA pNPs with 10% PEG/OVA ratio result in increased OT-I CD8+ cell proliferation in vitro, improved uptake by APCs (both in vitro and in vivo), and enhanced humoral immune response in vivo, a murine model of B16F10-OVA melanoma was employed to evaluate the therapeutic efficacy of pNPs with a PEG/OVA ratio of 10% compared to solute OVA. Tumor-bearing mice were treated with 10% PEG/OVA pNPs or solute OVA (10 μg OVA/100 μL dose), co-administered with CpG (15 μg/dose). Following the regimen shown in FIG. 9A, C57BL/6 mice (10 mice/treatment group) were inoculated with 1×10^5 B16F10-OVA cells in the SC flank on day 0. Treatments with either 10% PEG/OVA pNPs or solute OVA were initiated on day 7 after tumor inoculation. A second treatment was given on day 14. Mice were euthanized after their tumors reached 15 mm in any dimension. […] More than 50% of mice treated with solute OVA were euthanized due to large tumor burden on day 20, and 100% of the mice were euthanized on day 21.

B1: ovalbumin (protein, UniProt P01012 2-386, looked up)
Ovalbumin: GSIGAASMEFCFDVFKELKVHHANENIFYCPIAIMSALAMVYLGAKDSTRTQINKVVRFDKLPGFGDSIEAQCGTSVNVHSSLRDILNQITKPNDVYSFSLASRLYAEERYPILPEYLQCVKELYRGGLEPINFQTAADQARELINSWVESQTNGIIRNVLQPSSVDSQTAMVLVNAIVFKGLWEKAFKDEDTQAMPFRVTEQESKPVQMMYQIGLFRVASMASEKMKILELPFASGTMSMLVLLPDEVSGLEQLESIINFEKLTEWTSSNVMEERKIKVYLPRMKMEEKYNLTSVLMAMGITDVFSSSANLSGISSAESLKISQAVHAAHAEINEAGREVVGSAEAGVDAASVSEEFRADHPFLFCIKHIATNAVLFFGRCVSP
notes: soluble ovalbumin antigen used as control
MFI of lymph node cells / delivery to draining lymph nodes [1]: not delivered to the lymph nodes efficiently
mice euthanized due to large tumor burden (B16F10-OVA melanoma; day 20): More than 50%
mice euthanized (B16F10-OVA melanoma; day 21): 100%
animal survival (B16F10-OVA melanoma): slightly better survival
